These results are taken from patent US20230203188A1.

Assay [1] deals with full-length cyno SIRPα (XP_015313155, clone P3HD10), on CHO cells (cynomolgus monkey). The assay is described as follows: flow cytometry on CHO cells expressing the target. For orientation: A flow cytometer gives signals particle by particle.
For assay [2], the target named is full-length cyno SIRPβ1 (XP_005568598, clone PA2), on CHO cells (cynomolgus monkey). Put plainly: flow cytometry on CHO cells expressing the target.
In assay [3] the target is ED-tagged human SIRPα V1 receptor on Jurkat SIRPα-V1 signaling cells (human) (UniProt P78324). Put plainly: cell-based or functional assay.
Assay [4] addresses ED-tagged human SIRPα V2 receptor on Jurkat SIRPα-V2 signaling cells (human) (UniProt P78324). Put plainly: cell-based or functional assay.

Chain of KWAR23 (antibody) (VH): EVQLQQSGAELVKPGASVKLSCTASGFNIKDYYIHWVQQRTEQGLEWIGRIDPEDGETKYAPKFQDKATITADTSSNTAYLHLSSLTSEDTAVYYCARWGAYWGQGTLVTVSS
Chain of KWAR23 (antibody) (VL): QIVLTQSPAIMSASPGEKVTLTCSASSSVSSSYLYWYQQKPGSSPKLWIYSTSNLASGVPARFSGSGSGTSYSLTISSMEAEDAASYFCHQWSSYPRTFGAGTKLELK
Chain of ED-tagged human SIRPα V2 receptor on Jurkat SIRPα-V2 signaling cells (human) (P78324 31-504): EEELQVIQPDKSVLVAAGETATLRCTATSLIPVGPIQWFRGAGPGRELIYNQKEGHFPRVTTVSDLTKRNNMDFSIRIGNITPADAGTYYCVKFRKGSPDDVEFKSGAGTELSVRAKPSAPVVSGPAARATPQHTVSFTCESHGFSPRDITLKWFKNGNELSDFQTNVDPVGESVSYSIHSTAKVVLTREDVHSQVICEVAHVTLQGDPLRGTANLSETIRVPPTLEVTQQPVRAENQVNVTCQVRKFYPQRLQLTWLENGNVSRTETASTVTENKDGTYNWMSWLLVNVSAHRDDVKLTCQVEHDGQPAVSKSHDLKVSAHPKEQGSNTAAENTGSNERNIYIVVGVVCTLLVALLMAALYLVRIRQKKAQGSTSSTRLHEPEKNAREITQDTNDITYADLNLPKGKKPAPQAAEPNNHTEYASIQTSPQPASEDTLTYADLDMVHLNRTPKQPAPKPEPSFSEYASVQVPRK
Chain of ED-tagged human SIRPα V1 receptor on Jurkat SIRPα-V1 signaling cells (human) (P78324 31-504): as above

For orientation: EC50 means the concentration needed to bring the measured effect to its halfway point. KWAR23 (antibody): the EC50 in assay [1] came out at 0.5 nM; in assay [2], 0.2 nM. In addition, the IC50 of SIRPα signaling (SHP-1 recruitment, enzyme fragment complementation, Jurkat reporter cells) in assay [3] and in assay [4] was 0.04 nM throughout.
